Biological target: T1, tmCLIC1 (Mus musculus, UniProt Q9Z1Q5)
T1 construct: endogenous in cells; host or cells: BV-2 mouse microglial cell line
Assay: Immunofluorescence on live microglial cells
Type: cell-based, mice
Conditions: live microglial cells before and after stimulation with β-amyloid
Method: The migration of the protein to the plasma membrane gives rise to insertion of CLIC1 as transmembrane protein. The tmCLIC1omab antibody was used on live cells to specifically identify tmCLIC1. […] In live cells, the tmCLIC1omab antibody was used before (B) and after (C) stimulation with β-amyloid.
Immunofluorescence analyses were conducted to evaluate the specificity of the antibody in binding the transmembrane portion of the CLIC1 protein in WT and Clic1^−/− cells. The cells (5×10^4 cells/well) were plated on slides (ϕ12 mm). The cells were kept viable throughout the initial processes. The cells were washed three times with PBS Ca^2+/Mg^2+, and incubated for 45 minutes at room temperature in blocking solution (5% BSA in PBS). Subsequently, after removal of the blocking solution, the solution containing the antibody (3.5 μg/ml in PBS/BSA 5×) was added, and incubated for 1 h at room temperature. After three washes with PBS Ca^2+/Mg^2+, the cells were fixed with paraformaldehyde (PFA 2%) for 5 minutes at room temperature. After being washed three times with PBS Ca^2+/Mg^2+, the cells were incubated with secondary antibody Alexa Fluor 488 (Thermo Fischer Scientific) for 2 h at room temperature in the dark. […] The slides were observed through a Zeiss Examiner A1 fluorescence microscope with a Zeiss 40×/0.75 NA water immersion lens.

B1: tmCLIC1omab: IgG1 class antibody containing the heavy chain variable region SEQ ID NO:13 and the light chain variable region SEQ ID NO:14 (antibody, listed as Mus musculus, V domains shown)
VH: EVMLVESGGGLVKPGGSLKLSCAASGFAFSNYAMSWIRQIPEKRLEWVATISTGGSSTFYPDSVKGRFTISRDNAKNTLYLQMSSLRSEDTAMYYCTRHAYEAWFAYWGQGTLVTVSA
VL: QIVLTQSPALMSASPGEKVTMTCSASSSVSYMYWYQQRPRSSPKPWIYLTSTLASGVPTRFSGSGSGTSYSLTISSMEAEDAATYYCQQWNSHPLTFGSGTKLEIK
  recognition of tmCLIC1 on live cells: only reacts from the exterior
